Results from patent publication US20160272683A1 (Novo Nordisk, published 2016).
Values belong to the binder of their own block, whether it stands above or below them. Numbered stars: 1 amine (or outer) side, 2 acyl side, 3 side chain; on linkers, the order of the positions; unused ones are H or OH. * marks the point of attachment. C20 diacid = O=C(O)CCCCCCCCCCCCCCCCCCC(=O)*; γGlu = O=C(O)[C@H](CCC(=O)[*:2])N[*:1]

Assays:
[1] = biological target: T1, human amylin 3(a) receptor (human calcitonin receptor co-expressed with RAMP-3) (human, UniProt P30988 25-474; O60896 24-148, limits assumed); assay: cell-based or functional assay
T1 sequence (looked up) 1: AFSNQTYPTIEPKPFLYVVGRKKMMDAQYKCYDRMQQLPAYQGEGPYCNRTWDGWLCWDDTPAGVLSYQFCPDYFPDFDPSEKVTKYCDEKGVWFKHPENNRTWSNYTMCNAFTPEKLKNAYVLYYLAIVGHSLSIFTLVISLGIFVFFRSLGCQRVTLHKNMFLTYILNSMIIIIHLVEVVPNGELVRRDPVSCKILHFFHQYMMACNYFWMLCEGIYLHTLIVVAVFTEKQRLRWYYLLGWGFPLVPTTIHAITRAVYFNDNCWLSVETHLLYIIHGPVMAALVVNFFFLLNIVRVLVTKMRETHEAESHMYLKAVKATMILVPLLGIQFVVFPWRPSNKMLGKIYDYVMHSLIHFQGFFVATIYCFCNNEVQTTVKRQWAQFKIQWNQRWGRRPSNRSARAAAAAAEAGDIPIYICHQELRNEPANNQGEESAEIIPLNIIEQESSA
T1 sequence (looked up) 2: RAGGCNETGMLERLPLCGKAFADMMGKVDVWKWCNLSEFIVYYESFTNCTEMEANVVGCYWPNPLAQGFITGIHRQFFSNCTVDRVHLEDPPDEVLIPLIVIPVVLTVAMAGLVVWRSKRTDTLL

[2] = biological target: T2, human calcitonin receptor (human, UniProt P30988 25-474); assay: cell-based or functional assay
T2 sequence (looked up): T1 sequence (looked up) 1

- hAmylin-R funct. EC50 (pM) [1]: 47 pM
- hCTR funct. EC50 (pM) [2]: 28 pM
B1: [N-terminal(C20 diacid-gGlu), des1, 4G, 9V, 23Y, 30S, 31G, 32T]mimylin (peptide)
peptide: {C20 diacid-γGlu}-ASGLSTAVLGRLSAELHELATYPRTETGSGTP-NH2
SMILES: CC(C)C[C@H](NC(=O)CNC(=O)[C@H](CO)NC(=O)[C@H](C)NC(=O)CC[C@H](NC(=O)CCCCCCCCCCCCCCCCCCC(=O)O)C(=O)O)C(=O)N[C@@H](CO)C(=O)N[C@H](C(=O)N[C@@H](C)C(=O)N[C@H](C(=O)N[C@@H](CC(C)C)C(=O)NCC(=O)N[C@@H](CCCNC(=N)N)C(=O)N[C@@H](CC(C)C)C(=O)N[C@@H](CO)C(=O)N[C@@H](C)C(=O)N[C@@H](CCC(=O)O)C(=O)N[C@@H](CC(C)C)C(=O)N[C@@H](Cc1c[nH]cn1)C(=O)N[C@@H](CCC(=O)O)C(=O)N[C@@H](CC(C)C)C(=O)N[C@@H](C)C(=O)N[C@H](C(=O)N[C@@H](Cc1ccc(O)cc1)C(=O)N1CCC[C@H]1C(=O)N[C@@H](CCCNC(=N)N)C(=O)N[C@H](C(=O)N[C@@H](CCC(=O)O)C(=O)N[C@H](C(=O)NCC(=O)N[C@@H](CO)C(=O)NCC(=O)N[C@H](C(=O)N1CCC[C@H]1C(N)=O)[C@@H](C)O)[C@@H](C)O)[C@@H](C)O)[C@@H](C)O)C(C)C)[C@@H](C)O

- hAmylin-R funct. EC50 (pM) [1]: 50 pM
- hCTR funct. EC50 (pM) [2]: 34 pM
B2: [N-terminal(C20 diacid-gGlu), des1, 21S, 23Y, 30S, 31G, 33Y]mimylin (peptide)
peptide: {C20 diacid-γGlu}-ASELSTAALGRLSAELHELSTYPRTETGSGSY-NH2
SMILES: CC(C)C[C@H](NC(=O)[C@H](C)NC(=O)[C@H](C)NC(=O)[C@@H](NC(=O)[C@H](CO)NC(=O)[C@H](CC(C)C)NC(=O)[C@H](CCC(=O)O)NC(=O)[C@H](CO)NC(=O)[C@H](C)NC(=O)CC[C@H](NC(=O)CCCCCCCCCCCCCCCCCCC(=O)O)C(=O)O)[C@@H](C)O)C(=O)NCC(=O)N[C@@H](CCCNC(=N)N)C(=O)N[C@@H](CC(C)C)C(=O)N[C@@H](CO)C(=O)N[C@@H](C)C(=O)N[C@@H](CCC(=O)O)C(=O)N[C@@H](CC(C)C)C(=O)N[C@@H](Cc1c[nH]cn1)C(=O)N[C@@H](CCC(=O)O)C(=O)N[C@@H](CC(C)C)C(=O)N[C@@H](CO)C(=O)N[C@H](C(=O)N[C@@H](Cc1ccc(O)cc1)C(=O)N1CCC[C@H]1C(=O)N[C@@H](CCCNC(=N)N)C(=O)N[C@H](C(=O)N[C@@H](CCC(=O)O)C(=O)N[C@H](C(=O)NCC(=O)N[C@@H](CO)C(=O)NCC(=O)N[C@@H](CO)C(=O)N[C@@H](Cc1ccc(O)cc1)C(N)=O)[C@@H](C)O)[C@@H](C)O)[C@@H](C)O

- hAmylin-R funct. EC50 (pM) [1]: 20 pM
- hCTR funct. EC50 (pM) [2]: 23 pM
B3: [N-terminal(C20 diacid-gGlu), des1, 9T, 21S, 23Y, 30S, 31G, 33Y]mimylin (peptide)
peptide: {C20 diacid-γGlu}-ASELSTATLGRLSAELHELSTYPRTETGSGSY-NH2
SMILES: CC(C)C[C@H](NC(=O)[C@H](CCCNC(=N)N)NC(=O)CNC(=O)[C@H](CC(C)C)NC(=O)[C@@H](NC(=O)[C@H](C)NC(=O)[C@@H](NC(=O)[C@H](CO)NC(=O)[C@H](CC(C)C)NC(=O)[C@H](CCC(=O)O)NC(=O)[C@H](CO)NC(=O)[C@H](C)NC(=O)CC[C@H](NC(=O)CCCCCCCCCCCCCCCCCCC(=O)O)C(=O)O)[C@@H](C)O)[C@@H](C)O)C(=O)N[C@@H](CO)C(=O)N[C@@H](C)C(=O)N[C@@H](CCC(=O)O)C(=O)N[C@@H](CC(C)C)C(=O)N[C@@H](Cc1c[nH]cn1)C(=O)N[C@@H](CCC(=O)O)C(=O)N[C@@H](CC(C)C)C(=O)N[C@@H](CO)C(=O)N[C@H](C(=O)N[C@@H](Cc1ccc(O)cc1)C(=O)N1CCC[C@H]1C(=O)N[C@@H](CCCNC(=N)N)C(=O)N[C@H](C(=O)N[C@@H](CCC(=O)O)C(=O)N[C@H](C(=O)NCC(=O)N[C@@H](CO)C(=O)NCC(=O)N[C@@H](CO)C(=O)N[C@@H](Cc1ccc(O)cc1)C(N)=O)[C@@H](C)O)[C@@H](C)O)[C@@H](C)O
